Ends that are not written are not given here.
Experiments:
Test in all cases: chemical cross-linking of the biotinylated peptide on chilled cells, capture on Ni-NTA plates, detection with an antibody to the marker
transferrin receptor 1 = molecular target: T1, transferrin receptor 1 (UniProt P02786 1-760, limits assumed)
T1 construct: whole, on cells
Description: (§1) HEK293 kidney cell line and 54 tumor cell lines obtained from the National Cancer Institute and passaged in RPMI1640 cell culture medium supplemented with 10% fetal bovine serum and 10 uM FeCl₂. Uptake of streptavidin-horseradish peroxidase (SA-HRP) conjugate and of various SA-HRP::MBD peptide complexes was determined as described (Singh et al. J Biol Chem. 279 (1):477-87 [2004]) using biotinylated MBD9 ([…]) (SEQ ID NO: 10) and MBD21 ([…]) (SEQ ID NO: 4) peptides and SA-HRP. Nuclear and cytoplasmic localization of these proteins was also determined in each case. […] In order to establish the underlying molecular mechanism for this variability, we cross-linked MBD21 peptide to the following cell surface markers at 4 degrees Celsius as previously described (Singh et al. J Biol Chem. 279 (1):477-87 [2004]): transferrin receptor 1, caveolin 1, PCNA, integrins alpha v, 2, 5 and 6, integrins beta 1, 3 and 5. […] Based on the strength of these correlations, it was possible to derive crude predictive formulae for MBD-mediated uptake based on the rate of cross-linking to surface markers. Such predictive formulas could form the basis for a diagnostic procedure to select appropriate targets for MBD-based therapies.

caveolin 1 = molecular target: T2, caveolin 1 (UniProt Q03135 2-178, limits assumed)
T2 construct: whole, on cells
T2 sequence (looked up): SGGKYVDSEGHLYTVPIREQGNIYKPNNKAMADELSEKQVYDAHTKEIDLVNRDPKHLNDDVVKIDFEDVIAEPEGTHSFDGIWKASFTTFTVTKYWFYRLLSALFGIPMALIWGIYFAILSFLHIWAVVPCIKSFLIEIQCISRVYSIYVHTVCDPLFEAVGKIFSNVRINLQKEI
Description: as §1

PCNA = molecular target: T3, PCNA (UniProt P12004 1-261, limits assumed)
T3 construct: whole, on cells
Description: as §1

Measured: binding result

T3 sequence (P12004 whole entry): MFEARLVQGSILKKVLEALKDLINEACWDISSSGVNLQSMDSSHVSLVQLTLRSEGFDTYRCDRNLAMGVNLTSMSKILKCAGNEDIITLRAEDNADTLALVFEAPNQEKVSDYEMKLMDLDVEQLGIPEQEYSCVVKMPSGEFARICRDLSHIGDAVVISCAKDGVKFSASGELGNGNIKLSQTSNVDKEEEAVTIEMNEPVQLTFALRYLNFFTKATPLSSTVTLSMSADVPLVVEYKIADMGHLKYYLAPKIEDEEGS
T1 sequence (P02786 whole entry): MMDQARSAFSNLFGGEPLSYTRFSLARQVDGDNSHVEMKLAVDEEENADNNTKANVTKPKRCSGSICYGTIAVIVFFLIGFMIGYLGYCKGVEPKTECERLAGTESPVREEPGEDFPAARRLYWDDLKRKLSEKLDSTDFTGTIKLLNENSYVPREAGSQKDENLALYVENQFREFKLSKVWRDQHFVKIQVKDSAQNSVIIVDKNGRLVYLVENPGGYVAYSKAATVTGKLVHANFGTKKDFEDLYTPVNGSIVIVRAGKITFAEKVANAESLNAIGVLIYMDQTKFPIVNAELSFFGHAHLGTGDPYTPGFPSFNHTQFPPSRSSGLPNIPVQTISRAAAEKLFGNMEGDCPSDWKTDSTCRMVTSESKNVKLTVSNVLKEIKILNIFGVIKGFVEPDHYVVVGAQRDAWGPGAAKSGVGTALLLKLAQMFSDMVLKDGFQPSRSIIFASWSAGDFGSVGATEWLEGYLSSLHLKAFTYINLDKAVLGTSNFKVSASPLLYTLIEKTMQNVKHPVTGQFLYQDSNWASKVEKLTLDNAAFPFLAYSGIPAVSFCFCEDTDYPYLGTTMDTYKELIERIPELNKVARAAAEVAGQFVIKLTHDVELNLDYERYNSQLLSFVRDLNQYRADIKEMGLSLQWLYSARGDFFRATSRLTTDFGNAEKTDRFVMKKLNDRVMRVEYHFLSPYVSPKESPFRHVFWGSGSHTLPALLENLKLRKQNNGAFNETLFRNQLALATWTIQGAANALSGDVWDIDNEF

KKGFYKKKQCRPSKGRKRGFCWAVDKYG (cysteine pairing not given here; also: biotinylated, position not given here, also called biotinylated MBD21 peptide) [MBD21 peptide (biotinylated)]
binds: all assays above
